Reference: patent US20250152717A1 (AFFINI T THERAPEUTICS, published 2025)

Molecular target: RAB7B-derived peptide presented by HLA-A11 (human)
Assay: cell-based or functional assay
Set-up: unit not given beside the values

B1: TCR 11N4A (TCR, V domains shown)
V domain 1: DQQVKQNSPSLSVQEGRISILNCDYTNSMFDYFLWYKKYPAEGPTFLISISSIKDKNEDGRFTVFLNKSAKHLSLHIVPSQPGDSAVYFCAASGVSGNTPLVFGKGTRLSVIA
V domain 2: GVTQTPRYLIKTRGQQVTLSCSPISGHRSVSWYQQTPGQGLQFLFEYFSETQRNKGNFPGRFSGRQFSNSRSEMNVSTLELGDSALYLCASSVGTVEQYFGPGTRLTVTE
EC50 of the peptide dose-response of CD137 expression, sort-purified TCR 11N4A-transduced T cells: ~35
